The supplement of paper PMC12636428

Tested on: Saccharomyces cerevisiae
Assay: transcriptional activation domain activity (GFP:mCherry ratio, weighted mean of sorted bins, harmonized to initial dataset scale) (arbitrary fluorescence ratio units); higher = stronger transcriptional activation
Conditions: beta-estradiol 1 µM; induction time 4 h
Procedure, shortened: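 Sorting into 8 bins by GFP:mCherry ratio followed a 4-hour hold at 30 °C after cultures were diluted 1:5 into SC with 1 uM beta-estradiol. The yeast diploids carried a GFP reporter and had barcoded protein tiles, fused to an estradiol-inducible synthetic transcription factor, integrated at URA3. Barcodes were then sequenced, and tiles with under 50 reads were removed. Activation activity is the read-weighted mean of bin median fluorescence, averaged across barcodes and linearly mapped onto the initial dataset scale.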

| Sequence | transcriptional activation domain activity |
| --- | --- |
| LKKHDVNALVTVICNFLICITMALCVVWDSELLPDCLFRVKLIYTLITLGFLC | 63400 |
| ANHQVYVDWWYTWCLTYFMETHRDVCIVLKKSLKWIPVAGWGMQFFKFIFLAR | 39400 |
| NKDGNGDGGEGKDKDEENRSGNRDGKRERGRKEDRERVAGSSGGGAKGLKRKR | 42600 |
| SSIRQMLKISLVRPLHMLLTEPVLFLFAVSLHPFRPRIYLMLEAIPLVFTRLY | 40900 |
| SSSSSRVACGQVVKCGSEVVATSNGAYPVQEGDSCSRARRQSTGSVVNRTTRP | 26400 |
| AVPAEGAKPEETPAAAPAETTEAAKTEESKPEAPAASEPAKTEPAAPAAAPAA | < 6570 |
| EDLRAAMEEEEEVEENEAEEEWVDVMKKHRVQASRLELLASGVGTGRTTSPVD | 15900 |
| QSQAPARKKGAGGKEGKKGKGGKEGKEKVEKESKKKRKAEAEVVVGDEAAAAA | 33800 |
| LSRVTGKEHDQMCRIVLGILVDLRLPDNQNPTRLIWAVRALLDFLYLAQYPIH | 67200 |
| YECALGIYSCVSFFVGVFYYIFIIFLSPIIFILLIILPLRISFVLCMAILLFG | 28600 |
| MLRPYFFSPHFLLFVLVSAFNPGYYPPSLQFLSIICLYIFICPPPFFFISFPP | 50800 |
| FLLSTSFYFVFILFLFHFYIVLFLLPPPSLSFPLSLPYLSAFIVLTPTQLWPA | 77600 |
| LYYTVIRLFHIYPCRDPLAANSTTFNKSLYLVWSFLCMLVYLAHISYLTLLPR | 54100 |
| FLDRGRVGFFFFFLLVSFYSSSWKLLFLLYTHFFVFSGLLALYYFLFWSVLFI | 68800 |
| WIPFTLSIIVVEIPYLLFFSTSLLCGIYWTAGLSNTPDAVGYFYLMIFFFIFW | 61600 |
| ERDDSRSERNVDDGDRRRAGRRRRDSRSSDDEHTTSRRRGGKDHADREDSDRR | 29100 |
| FCHIALFPSIGLKDTNYIPRAMDGVRFAHLESLHLQFNMYWLGPMYAWALHIL | 52500 |
| RFRALRLLVIDDMIRLRDQSHCGWICTFLSSIELDVIQCINFRIWINMCPEFY | 32600 |
| MGCDVVGCDVVGFLFFLFFFILFLGLLVCWLAGWHVCWVFWFLVFVLGGLGGL | 48200 |
| TTGCREGFDWTPLSSVRYGGICGGRLFSICHTTFEGLAIIGMPNILICNYNVT | 43300 |
| GDFNDKTLKENCRVDSQQDCYDLAQLQILESDFWKTIAFSKPFYAVDENSSIF | 102000 |

| Sequence | transcriptional activation domain activity |
| --- | --- |
| VHNNSNNSNNSNISASDYTVANNSTSNNNNNNNNNNNNNNNIHPNQFTAAANM | 39200 |
| MVVLTICQLHHWNAGWDFHLLFWVCLFYSVKKLYDLILWLNFILTSKDLVKSN | 40600 |
| KGGEKKEGEEQNGGGEKKGGEEQKGGGEKKGRWVEEKGGEEQKGGAIAAAGQN | 14200 |
| KSKAANAKGKKKGKKGKKNKKGKKGKKAKNAKKAKAVKVAKAPVAKAPAPAAK | 17700 |
| MAVNDGFLFVFSCLFFLIFVTLLLTFPFLFFGSSHFHMGNPPVFPLLILISCY | 47200 |
| VASVLVFICHYTECNWGDLTHFYGVNKEHPGSFIQMPYIRLIYSGRPMVHIFF | 29900 |
| LSHSFFSSCCCLLRTLGRFLLFIIFFLSFYFFIFTFFFFFSFQTYLLLYLLLI | 31400 |
| YYYFNYFYFYYFYYYFIIIIIILFYLILFLFLFLLLLLFIYFYFYFNYFYYLF | 69700 |
| IDHTDIHAHHADAHDDSFIESEEWLSKFIMDSQIDNDLKLNINHFNDIGFNNL | 154000 |
| EVSIDGVQTVTYCGRDALPEHDKVTEVGWVLDRGILKLGVLYLWLNCRHMCVT | 65400 |
| MPPAPKSPQPRRPGAPKSKGAVRAKSGCYTCRIRRKKCDEQMNAEGSCSTCVR | 42800 |
| FYFFFLLSLFSSSSPPLIFLALPLPFSISLTVSNPLAFPVAFFPLFSLSSLLN | 65800 |
| MGLGFFSFFLSVFSFFLFPFFFFGCEFIYLFLVFWWRVDFSPMAERHSVEAGP | 53000 |
| DCDLTCDTPCTASTSATSGHKFVQDHQSSNNDDVFHKYCKFCEESTDNQPCSK | 58300 |
| HIHCFVALFLVMPFFVLVFIVFLGGCNYCLQKKLVLPSLLLTFVIYGGGRLGF | 37900 |
| ISAQEFSRNFTEDVDESLQSEIDLMNYDNEALNQLMAIDLDKLLGIFPNLSNF | 140000 |
| HAEPGTGWACVKHTSDCTAVKKASGIPGRNFHRRPKYSVVVSAGERTWKAKQC | 52400 |
| MFMTELLWGPGVRRLFLVFLFFISFPSLIPFFLSCLSFCTLLISLLCSFGTCA | 38500 |
| ASNTTEVQLFINGSYVLLDTVCTRVLLYPDQILSNFRREDIALLCLQFWLFFI | 28700 |
| MFAKILVLSWFDSIRWGLFLLLCVMGVFLLFDIPFFLFPTCFLCLVFPFLLAK | 20400 |
| MLRCVFFLYCFLLVTFFSSRRVLVCAGAYLSSSYPLMPDCQYWVYFAFLRCFS | 52400 |

| Sequence | transcriptional activation domain activity |
| --- | --- |
| LLISDSQLGSYLLIGFVLENFICLFGLLVHSYLSLTRMDLGSFFFFAQITNRM | 40700 |
| AILDLAFYIRWQNNNYHLAPSIPLSKMYSNSLLVVLNARIKIVGGRNEYKTNS | 31900 |
| EGEEDKPKAARGRKRKADADAEEPPAKKTKPASKAAPGSKPASKAAASKPASK | 25400 |
| ILVHCIRLWTGFLVACFACLILLICLGACNLEMGIVVWSFCLISAGLHSVAVG | 16500 |
| PKDSEPEGADKLKPMQEVYGAVRNTGIGTEVDNRDNMIRGRWRKLLHARLAHL | 43500 |
| MQADNLPFMCVCPYFLSTYSSSLSLVFPLFFFLCLFLLFPFFAFLLLLSLFSC | 44500 |
| MRAKNLTWTTLIYFSTVLWFVGDLVTNNHVRLVGVWSECKLWILWFRVFFVYV | 84300 |
| MIYACGLICFYFFFFFLYFFPFCISFHIFLFSFLYPSCSFSFLQHCQVGTGVC | 48900 |
| TPIDVETDDPDIYIKPALDGSLNLLTSIVRYGQVIRGLSSCIIHLFNNVHLVR | 43000 |
| MEQTLATNQSLQPVKRVACNRCRTQKLKCNPSGEGRGSSSKCVRCAKAGTDCT | 38900 |
| MADTSTDGGPERTPVAAPISIKACDQCRARKVRCDKTSPCANCRKHNVKCTTS | 19000 |
| LLLPFVVRRFGCWVCGFYLVLLFFIFPLLLYVVLSSCFSILFTSPFIFYFSSF | 61200 |
| ILDDFFNDGACNEINVILDKAKVRRDFLDYFMPEKEVKAEGDRSIVYILSNPK | 59200 |
| RKIVNEPREYLHAGNVKDNQGARQKKRRVGRGLGSGLGKTSGRGQKGWKARAP | 37000 |
| SNVFPTQLLARHQKEIKRFKRMLAIVRWFEVCFALLRIKYLMKLFWFSVEFCN | 50000 |
| SSAAAGSSGNASRAAMDVDGEVDADADENRRRSTRASAGRKKAGSAVKKAGTG | < 6570 |
| MSSGFSWSTCSFFFFFFFFLLLLLLLFFWFFLFGLSWRDSLVFFPFFFFLSLF | 17800 |
| MLFGRSFMGTYFISGKHVFFFFLVFFNSLFLFYLLTSTFISICITGSLFFFVL | 30400 |
| VVLSVLCSLLNTTLKYNPASWRVPYDHVVFKDSKQILVTYCLQLLLVLILYPI | 44500 |
| VYIGACWGHWAQLNVFLIPGLVVWFIDRGIRFARTALLHYNFLPSGHMGFRAA | 77700 |
| MFLLFRSPCLLVLYIFWVGQSGVGLRGVGVHHFFFFFFSLLAALLLFCLCGAI | 29400 |

| Sequence | transcriptional activation domain activity |
| --- | --- |
| STTLPAVDNNNLFDAVASPLADPLCDDIAGNSLPFDNSIDLDNWRNPEAQSGL | 71400 |
| GRWSYLRTSEMILTFFYKNIMWTLVLFWYQLMCSFTGTMMFDYSYITLYNLVF | 63400 |
| LESTHSLLALLNFIAFLCDGRFRTIADRLLNVRLIPSRRLVKRDVSYEFMNRQ | 46300 |
| LEMLSYGAGVHHAINILFTDGIFWVWYYDRQGILQSKGVSIFKDLPRFLLLLF | 52200 |
| MKSHDLFFFLLLLFQLTSFSSIQLFPAVRVILHVLSHLFMVLHAYCCLPPFIF | 64400 |
| IETLYRLVTTHSGQDYFIQSVHHGILLLNLLYMDIPYFTEWVGLSCQLYNVIT | 27700 |
| MPLLPRWRGKACKVVILAQFDHRYYIHGTLKRLTDVVAWLKAWWICVFWLGSR | 61300 |
| EAEQEVQQKPAKGKKALAAAKSSAEDAEPEAAPAPKKSALKDGEASAAAPAPS | 21800 |
| LLIPTISFFFCATNCYVLTKDSQLDRGYIYWVLRCSAVHLMLSFFTLLFSLCF | 48100 |
| SPKMYESFLRIDLRNLEVRVLGMGATTSDVRLANIVVQYLVKGWLPQTAYATL | 71200 |
| LYSIFSLLSIRFFILYSVYVFFFFIGALGGGMLYGLFFFFFFDEVIWYSFFLS | 35400 |
| MDRVSIRFTLAISLADLGQAVLHMIGSKFSWLSCGLLLGISRFLCLFYIFLSV | 57100 |
| IFFVLPVFFFFHPPPFVFLPPSSFLPFLLLLLLLPLVLFISPPFSPSVAFYFT | 54100 |
| MQETNGNTTAADQGSRHDVPPPRRPTRSRNGCMTCRRRKVRCDEQRPRCSHCE | 8920 |
| TSQCSISLYHYLIMYHMTLLGVATSVLALVLVCNPAEFLISSSVRLGFIWFCI | 73700 |
| TSSPRRNSPPTRSTSSSPPSSPTSPYPSSSPPRPAPSPRPCARRGPKTPPSRP | 30300 |
| RISPGFIKKRRSSQTRQDEDHWQRVRELENQSSLYYLPIHEETPFFIDLIPNG | 76200 |
| MPFNLPPRAIGVATRVLEELGLFNIYKSCIDTKILCIQRFVRLFAYGGSTLVL | 44200 |
| HSLGSNASIDHLYTYTHAYIYTLYIWLPKMFSFFPFAIIFFLCMLLLFFIFIF | 64600 |
| KWLCYVELMNILTLGWPLSNIHFYICKYCAGWFRKYNYLFGTGINGGAQIFVL | 66700 |
